Results on one molecule are retold here after patent US20140073556A1 (published 2014).

The experiment has as its target T1, recombinant protein comprising the whole extracellular part of IL1RI (UniProt P14778 18-336).
T1 chain: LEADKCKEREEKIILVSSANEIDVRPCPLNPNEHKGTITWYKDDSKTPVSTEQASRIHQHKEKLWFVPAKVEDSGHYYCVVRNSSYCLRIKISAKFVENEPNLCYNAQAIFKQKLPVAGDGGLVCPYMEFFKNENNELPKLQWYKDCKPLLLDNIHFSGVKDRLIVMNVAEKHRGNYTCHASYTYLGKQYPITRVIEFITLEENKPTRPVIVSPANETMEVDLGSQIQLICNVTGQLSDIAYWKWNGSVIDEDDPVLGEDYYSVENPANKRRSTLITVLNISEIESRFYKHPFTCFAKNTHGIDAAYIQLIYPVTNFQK
Put plainly: SPR. (In general: SPR reads the build-up and loss of mass on a sensor chip optically.)

What is called Kd is the free concentration of one partner at which half of the binding sites on the other are occupied at equilibrium, for simple one-to-one binding.

For the molecule SGRKSSKMQA [Ilantafin peptide (SEQ ID NO:1), SGRKSSKMQA], the Kd was found to be 171 nM.
